# Assay results published in publication PMC4131687.
# B1: μ-conotoxin KIIIA-P2, P0C195 (peptide)
# chain: CCNCSSKWCRDHSRCC
# What was measured:
# Settings in all cases: modification not given
# [1] = molecular target: NaV1.2 (Rattus norvegicus), P04775
# [2] = molecular target: NaV1.4 (Rattus norvegicus), P15390
# [3] = molecular target: NaV1.7 (Rattus norvegicus), O08562
# Sequence of NaV1.7 (Rattus norvegicus), O08562 (O08562 whole entry): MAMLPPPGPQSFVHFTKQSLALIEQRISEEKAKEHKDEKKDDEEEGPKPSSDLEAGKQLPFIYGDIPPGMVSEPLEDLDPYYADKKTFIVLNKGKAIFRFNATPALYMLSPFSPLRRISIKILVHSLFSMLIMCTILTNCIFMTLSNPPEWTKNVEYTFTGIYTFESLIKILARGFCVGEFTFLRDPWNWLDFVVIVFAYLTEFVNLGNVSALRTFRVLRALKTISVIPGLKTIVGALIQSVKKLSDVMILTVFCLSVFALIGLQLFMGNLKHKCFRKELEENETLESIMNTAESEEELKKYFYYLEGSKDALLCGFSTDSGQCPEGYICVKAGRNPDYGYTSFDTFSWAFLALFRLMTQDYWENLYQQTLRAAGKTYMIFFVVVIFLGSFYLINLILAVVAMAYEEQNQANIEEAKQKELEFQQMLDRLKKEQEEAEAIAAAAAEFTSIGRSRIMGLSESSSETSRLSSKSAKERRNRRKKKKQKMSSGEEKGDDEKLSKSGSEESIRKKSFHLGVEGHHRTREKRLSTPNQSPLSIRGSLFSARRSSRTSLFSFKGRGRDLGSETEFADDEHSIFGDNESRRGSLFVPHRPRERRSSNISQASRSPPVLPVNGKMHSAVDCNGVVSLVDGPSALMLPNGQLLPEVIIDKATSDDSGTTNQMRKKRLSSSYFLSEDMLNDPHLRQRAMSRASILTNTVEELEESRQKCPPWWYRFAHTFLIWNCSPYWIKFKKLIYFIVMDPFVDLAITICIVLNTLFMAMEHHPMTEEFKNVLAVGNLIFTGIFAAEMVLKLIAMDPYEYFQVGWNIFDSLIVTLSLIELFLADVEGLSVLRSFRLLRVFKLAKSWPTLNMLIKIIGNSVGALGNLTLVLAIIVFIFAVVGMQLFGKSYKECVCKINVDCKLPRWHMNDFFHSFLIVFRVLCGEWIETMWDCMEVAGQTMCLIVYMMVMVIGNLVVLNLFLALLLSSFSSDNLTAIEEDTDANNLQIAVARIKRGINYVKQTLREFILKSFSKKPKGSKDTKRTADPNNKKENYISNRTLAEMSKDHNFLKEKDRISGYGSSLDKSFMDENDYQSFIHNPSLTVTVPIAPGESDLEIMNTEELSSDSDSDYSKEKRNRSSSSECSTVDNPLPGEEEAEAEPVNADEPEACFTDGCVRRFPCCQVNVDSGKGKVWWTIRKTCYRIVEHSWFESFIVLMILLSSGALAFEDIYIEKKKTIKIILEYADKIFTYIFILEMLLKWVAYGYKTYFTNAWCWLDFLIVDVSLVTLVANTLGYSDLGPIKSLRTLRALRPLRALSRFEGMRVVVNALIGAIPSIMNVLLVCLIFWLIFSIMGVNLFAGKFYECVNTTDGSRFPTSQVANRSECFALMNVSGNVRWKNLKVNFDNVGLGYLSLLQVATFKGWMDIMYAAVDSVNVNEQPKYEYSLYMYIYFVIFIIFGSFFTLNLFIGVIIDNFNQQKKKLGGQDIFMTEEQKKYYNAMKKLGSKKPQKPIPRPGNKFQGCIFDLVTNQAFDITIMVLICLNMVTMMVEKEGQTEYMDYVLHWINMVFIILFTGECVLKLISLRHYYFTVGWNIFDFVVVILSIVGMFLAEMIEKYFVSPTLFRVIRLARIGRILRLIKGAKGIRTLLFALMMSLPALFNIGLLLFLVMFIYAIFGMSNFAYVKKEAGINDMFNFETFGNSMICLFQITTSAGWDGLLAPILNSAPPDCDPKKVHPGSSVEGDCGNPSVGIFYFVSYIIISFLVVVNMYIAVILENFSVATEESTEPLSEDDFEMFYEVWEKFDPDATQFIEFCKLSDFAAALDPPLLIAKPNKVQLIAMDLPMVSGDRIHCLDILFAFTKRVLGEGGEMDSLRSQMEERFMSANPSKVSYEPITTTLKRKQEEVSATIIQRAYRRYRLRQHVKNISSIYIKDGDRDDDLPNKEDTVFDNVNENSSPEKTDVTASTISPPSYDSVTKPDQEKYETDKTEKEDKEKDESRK
# Sequence of NaV1.4 (Rattus norvegicus), P15390 (P15390 whole entry): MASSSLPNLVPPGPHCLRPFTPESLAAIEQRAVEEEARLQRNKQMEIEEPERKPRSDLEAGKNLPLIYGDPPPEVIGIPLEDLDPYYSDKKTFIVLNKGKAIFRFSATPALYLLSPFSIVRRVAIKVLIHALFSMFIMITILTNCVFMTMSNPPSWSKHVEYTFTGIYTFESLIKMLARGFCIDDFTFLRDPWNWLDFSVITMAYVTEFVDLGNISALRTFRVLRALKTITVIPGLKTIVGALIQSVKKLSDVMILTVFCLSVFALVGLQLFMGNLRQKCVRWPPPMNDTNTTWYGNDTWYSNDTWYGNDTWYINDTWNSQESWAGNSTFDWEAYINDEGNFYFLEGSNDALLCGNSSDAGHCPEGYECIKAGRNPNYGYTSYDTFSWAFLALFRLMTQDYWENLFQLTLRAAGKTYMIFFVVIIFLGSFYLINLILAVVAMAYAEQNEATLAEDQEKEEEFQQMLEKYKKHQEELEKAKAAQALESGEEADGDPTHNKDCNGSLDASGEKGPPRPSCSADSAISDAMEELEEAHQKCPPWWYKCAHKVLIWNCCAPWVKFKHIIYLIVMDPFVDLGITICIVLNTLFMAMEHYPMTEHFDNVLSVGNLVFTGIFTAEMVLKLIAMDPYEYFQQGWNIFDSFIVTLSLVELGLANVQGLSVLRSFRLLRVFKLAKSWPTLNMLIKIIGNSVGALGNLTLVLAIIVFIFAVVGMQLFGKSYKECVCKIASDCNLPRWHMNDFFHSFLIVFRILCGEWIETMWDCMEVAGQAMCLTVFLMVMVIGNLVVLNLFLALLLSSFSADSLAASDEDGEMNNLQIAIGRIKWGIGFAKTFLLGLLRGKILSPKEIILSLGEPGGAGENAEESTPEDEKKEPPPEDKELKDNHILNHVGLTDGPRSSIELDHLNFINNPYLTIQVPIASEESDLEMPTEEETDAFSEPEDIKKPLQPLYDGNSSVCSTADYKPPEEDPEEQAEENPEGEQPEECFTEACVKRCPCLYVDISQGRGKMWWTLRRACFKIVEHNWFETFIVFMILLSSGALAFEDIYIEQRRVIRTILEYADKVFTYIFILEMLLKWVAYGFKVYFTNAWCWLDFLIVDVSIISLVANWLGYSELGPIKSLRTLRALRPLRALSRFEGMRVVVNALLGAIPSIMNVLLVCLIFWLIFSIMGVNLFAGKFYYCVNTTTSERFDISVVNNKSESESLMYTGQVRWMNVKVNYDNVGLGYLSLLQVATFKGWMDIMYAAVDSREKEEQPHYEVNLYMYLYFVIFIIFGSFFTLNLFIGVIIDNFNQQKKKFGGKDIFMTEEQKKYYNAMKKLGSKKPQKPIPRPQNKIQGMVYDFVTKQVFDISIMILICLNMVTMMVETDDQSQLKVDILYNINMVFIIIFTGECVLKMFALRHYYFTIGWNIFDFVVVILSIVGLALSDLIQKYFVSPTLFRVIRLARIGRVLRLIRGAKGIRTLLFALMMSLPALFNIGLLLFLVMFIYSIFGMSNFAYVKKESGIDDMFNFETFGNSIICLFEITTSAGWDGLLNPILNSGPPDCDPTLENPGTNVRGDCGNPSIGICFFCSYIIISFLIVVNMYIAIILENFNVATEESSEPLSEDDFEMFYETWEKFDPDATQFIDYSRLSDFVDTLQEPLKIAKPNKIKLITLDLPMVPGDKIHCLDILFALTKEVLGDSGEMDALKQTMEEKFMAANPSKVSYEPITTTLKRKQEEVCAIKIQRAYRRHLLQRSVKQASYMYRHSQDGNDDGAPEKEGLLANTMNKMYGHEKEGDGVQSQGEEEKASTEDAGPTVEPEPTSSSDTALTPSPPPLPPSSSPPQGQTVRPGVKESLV
binder,measurement,setting,value
B1,Kd,[1],230 nM
same,Kd,[2],830 nM
same,Kd,[3],1570 nM
